Drawing on paper PMC6919976, this text covers rate of phosphorylation of eIF2α (2 µM) by GCN2 in vitro, with wildtype ribosomes against none for one substance.

The experiment addresses ribosomes isolated from wildtype CHO cells (hamster (endogenous in CHO)).

For “GCN2, StrepII-tagged, purified from Sf9 cells (from UniProt Q9P2K8 1-1649) (enzyme)”, the rate of phosphorylation of eIF2α (2 µM) by GCN2 in vitro, with wildtype ribosomes against none is 10 fold.
